Test [1] deals with T1, Human FcRn (human, UniProt P55899 24-297; P61769 21-119).
T1 construct: also called neonatal Fc-receptor; biotinylated human FcRn
Briefly: SPR (Biacore 4000) at pH 6.0, biotinylated FcRn captured on streptavidin C1 chip, antibody as analyte, steady-state fit.
Experimental: (§1) The in vitro binding dissociation constants (KD) of selected antibodies described herein for human and cynomolgus macaque (cyno) Fc binding receptors (FcγRs, FcRn) were determined using the Biacore 4000 surface plasmon resonace (SPR) biosensor, and either C1 or CM4 sensor chips (GE Healthcare).
(§2) For human FcRn binding assays, 600 RU of streptavidin was amine coupled to a C1 sensor chip using standard NHS/EDC coupling. The immobilization buffer was PBS+0.005% Tween 20, pH 7.4. Streptavidin was prepared at 50 μg/ml in 10 mM NaAc pH 4.5. Activation, coupling, and blocking steps were run for 10 minutes, each at 10 μl/min. […] Data were collected at pH 6.0 and pH 7.4 in triplicate. The response data at steady-state were fit to a simple binding isotherm.

For test [2], the target named is T1, Human FcRn. The test is described as follows: SPR (Biacore 4000) at pH 7.4, biotinylated FcRn captured on streptavidin C1 chip, antibody as analyte, steady-state fit.
Experimental: as §1, §2
For test [3], the target named is T2, Cyno FcRn (cynomolgus macaque, UniProt Q8SPV9 24-297; Q8SPW0 21-119).
T2 construct: also called cynomolgus macaque FcRn; biotinylated cyno FcRn
Briefly: SPR (Biacore 4000) at pH 6.0, biotinylated cyno FcRn captured on streptavidin C1 chip, antibody as analyte, steady-state fit.
Experimental: (§3) The in vitro binding dissociation constants (KD) of selected antibodies described herein for human and cynomolgus macaque (cyno) Fc binding receptors (FcγRs, FcRn) were determined using the Biacore 4000 surface plasmon resonace (SPR) biosensor, and either C1 or CM4 sensor chips (GE Healthcare). Biotinylated human FcRn was purchased from Immunitrack. Biotinylated cynomolgus macaque FcRn and human FcγRIIIB-NA1 and FcγRIIIB-NA2 were purchased from Acro Biosystems.
(§4) To determine cynomolgus macaque FcRn binding affinities, 600 RU of streptavidin was amine coupled to a C1 sensor chip using standard NHS/EDC coupling. The immobilization buffer was PBS+0.005% Tween 20, pH 7.4. Streptavidin was prepared at 50 μg/ml in 10 mM NaAc pH 4.5. Activation, coupling, and blocking steps were run for 10 minutes, each at 10 μl/min. Biotinylated cyno FcRn was captured to about 20 RU. Antibodies were tested for binding to the FcRn surface using a two-fold concentration series up to 1 μM. Data were collected at pH 6.0 and pH 7.4 in triplicate. The response data at steady-state were fit to a simple binding isotherm.

In test [4] the target is T3, Human FcγRIIB (human, UniProt P31994 46-217).
T3 construct: also called FcγRIIB/C; FcRIIB/C
T3 sequence (looked up): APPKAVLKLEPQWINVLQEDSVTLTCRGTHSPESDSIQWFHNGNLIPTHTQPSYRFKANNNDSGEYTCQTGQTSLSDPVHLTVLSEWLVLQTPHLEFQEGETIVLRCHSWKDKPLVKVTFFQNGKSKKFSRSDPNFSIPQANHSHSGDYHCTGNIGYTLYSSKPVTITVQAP
The test is described as follows: SPR (Biacore 4000), FcγRIIB/C amine coupled to CM4 chip, antibody as analyte, steady-state fit. In general terms: In SPR one partner is held on a chip, and binding of the other changes the refractive index at the surface.

The target in test [5] is T4, Human FcγRI (human, UniProt P12314 16-288).
T4 construct: also called CD64
The test is described as follows: SPR (Biacore 4000), antibody amine coupled to CM4 chip, FcγRI as analyte (3 and 30 nM), kinetic fit.
Experimental: as §3
To determine human FcγRI binding affinities, each test antibody was amine coupled to a CM4 sensor chip at two densities (about 100 RU and about 800 RU). Human FcγRI was tested for binding using a two-step titration series (3 nM and 30 nM). Responses were fit to a simple kinetic model.

Test [6] addresses T5, Human FcγRIIA-167H (human, UniProt P12318 36-218).
T5 sequence (looked up): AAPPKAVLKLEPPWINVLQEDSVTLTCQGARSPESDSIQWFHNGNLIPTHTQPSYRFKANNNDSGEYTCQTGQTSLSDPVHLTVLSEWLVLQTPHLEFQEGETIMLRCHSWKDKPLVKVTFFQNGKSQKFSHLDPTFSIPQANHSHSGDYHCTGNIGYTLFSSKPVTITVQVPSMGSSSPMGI
Briefly: SPR (Biacore 4000), receptor amine coupled to CM4 chip, antibody as analyte, steady-state fit.

Test [7] deals with T6, Human FcγRIIIA-176V (human, UniProt P08637 17-208).
T6 construct: also called CD16a 176V
The test is described as above.

Test [8] addresses Human FcγRIIIA-176F (human, UniProt P08637 17-208). The test is described as above.
Test [9] has as its target T7, Human FcγRIIA-167R (human, UniProt P12318 36-218).
T7 sequence (looked up): T5 sequence (looked up) with H132R
The description is as above.

Test [10] has as its target T8, Cyno FcγRIIA (cynomolgus macaque).
T8 construct: also called cynomolgus macaque FcγRIIA
The test is described as follows: SPR (Biacore 4000), antibody amine coupled to CM4 chip, cyno FcγRIIA as analyte, steady-state fit.
Experimental: as §1
(§5) To determine cynomolgus macaque FcγRIIA, FcγRIIB, FcγRIII and FcγRI binding affinities each test antibody was amine coupled to a CM4 sensor chip at two densities (about 100 RU and about 800 RU). Cyno FcγRIIA and FcγRIIB were tested in a two-fold concentration series up to 1 μM. FcγRIII was tested in a two-fold concentration up to 500 nM. Cyno FcγRI was tested for binding using a two-step titration (3 nM and 30 nM). The response data for FcγRIIA, FcγRIIB, FcγRIII at steady-state were fit to a simple binding isotherm. Responses for FcγRI were fit to a simple kinetic model.

In test [11] the target is T9, Cyno FcγRIIB (cynomolgus macaque).
T9 construct: also called cynomolgus macaque FcγRIIB
The test is described as follows: SPR (Biacore 4000), antibody amine coupled to CM4 chip, cyno FcγRIIB as analyte, steady-state fit.
Experimental: as §1, §5

Test [12] has as its target T10, Human FcγRIIIB-NA2 (human, UniProt O75015 17-200).
T10 construct: also called CD16b NA2
The test is described as follows: SPR (Biacore 4000), antibody amine coupled to CM4 chip, FcγRIIIB as analyte, steady-state fit.

The target in test [13] is T11, Human FcγRIIIB-NA1 (human, UniProt O75015 17-200).
T11 construct: also called CD16b NA1
The description is as above.

Test [14] addresses gp120 CAAN (HIV).
Test [15] concerns the target gp120 REJO (HIV).
In test [16] the target is gp120 Bal (HIV-1).
The target of test [17] is T2, Cyno FcRn. The test is described as follows: SPR (Biacore 4000) at pH 7.4, biotinylated cyno FcRn captured on streptavidin C1 chip, antibody as analyte, steady-state fit.
Experimental: as §3, §4
In test [18] the target is T12, Cyno FcγRI (cynomolgus macaque, UniProt A0A2K5U901 33-309).
T12 construct: also called cynomolgus macaque FcγRI
Briefly: SPR (Biacore 4000), antibody amine coupled to CM4 chip, cyno FcγRI as analyte (3 and 30 nM), kinetic fit.
Experimental: as §1, §5

Test [19] deals with T13, Cyno FcγRIII (cynomolgus macaque, UniProt Q8SPW2 17-208).
T13 construct: also called cynomolgus macaque FcγRIII
The test is described as follows: SPR (Biacore 4000), antibody amine coupled to CM4 chip, cyno FcγRIII as analyte, steady-state fit.
Experimental: as §1, §5

The target of test [20] is T14, human C1q protein (human, UniProt P02745 23-245; P02746 28-253; P02747 29-245).
T14 construct: also called complement protein C1q
The test is described as follows: C1q binding ELISA, antibody coated on plate, titrated human C1q, anti-C1q-HRP detection, n = 3 assays. In general terms: ELISA stands for enzyme-linked immunosorbent assay.
Experimental: A dose response binding ELISA was conducted to determine the relative C1q binding affinity of antibodies described herein. To conduct they assay, a 384-well Maxisorp plate was coated with 25 μl of antibody solution at 5 μg/mL in PBS pH 7.4 overnight at 4° C. Plates were then blocked with 75 μL of 1% BSA in PBS for 2 hours and washed 4 times with PBS+0.05% Tween 20 (PBST). Next, 25 μL of a three-fold serial dilution of human C1q protein in PBS+5% BSA was added to the plates. Plates were incubated with shaking at 600 rpm for one hour, washed 4 times with PBST and then 25 μL of anti-C1q-HRP conjugated polyclonal antibody was added in PBS+5% BSA. Plates were incubated with shaking at 600 rpm for 15 minutes, washed 8 times with PBST and then developed using 3,3′,5,5′-Tetramethylbenzidine (TMB) substrate and quenched with HCl.

Changes are numbered by the printed parent chain.

B1: Antibody A-1 (antibody, human IgG1, kappa)
heavy: QVQLLQSGAAVTKPGASVRVSCEASGYNIRDYFIHWWRQAPGQGLQWVGWINPKTGQPNNPRQFQGRVSLTRHASWDFDTFSFYMDLKALRSDDTAVYFCARQRSDYWDFDVWGSGTQVTVSSASTKGPSVFPLAPSSKSTSGGTAALGCLVKDYFPEPVTVSWNSGALTSGVHTFPAVLQSSGLYSLSSVVTVPSSSLGTQTYICNVNHKPSNTKVDKKVEPKSCDKTHTCPPCPAPELLAGPDVFLFPPKPKDTLMISRTPEVTCVVVDVSHEDPEVKFNWYVDGVEVHNAKTKPREEQYNSTYRVVSVLTVLHQDWLNGKEYKCKVSNKALPLPEEKTISKAKGQPREPQVYTLPPSREEMTKNQVSLTCLVKGFYPSDIAVEWESNGQPENNYKTTPPVLDSDGSFFLYSKLTVDKSRWQQGNVFSCSVLHEALHSHYTQKSLSLSPGK
light: DIQMTQSPSSLSASVGDTVTITCQANGYLNWYQQRRGKAPKLLIYDGSKLERGVPSRFSGRRWGQEYNLTINNLQPEDIATYFCQVYEFVVPGTRLDLKRTVAAPSVFIFPPSDEQLKSGTASVVCLLNNFYPREAKVQWKVDNALQSGNSQESVTEQDSKDSTYSLSSTLTLSKADYEKHKVYACEVTHQGLSSPVTKSFNRGEC
As a reminder, the Kd is a measure of binding affinity in units of concentration. Read a low Kd as higher affinity. As usually defined, the EC50 is the midpoint of the concentration-response curve. Low readings indicate higher potency in that assay, high ones lower potency in that assay. Consider B1, for which the dissociation constant (Kd) turned out to be 38 nM in test [1]; 1700 nM in test [2]; 16 nM in [3]; 1600 nM in [4]; 0.002 nM in test [5]; 131 nM in test [6]. In addition, the Kd in test [7] was 59 nM; in test [8], 52 nM; in test [9], 130 nM; in test [10], 1100 nM; in test [11] it was 240 nM; in test [12], 56 nM. In addition, the Kd in test [13] stood at 59 nM; in test [17], 4300 nM; in test [18], 0.005 nM; in [19], 7.1 nM. Besides, the EC50 in [14] was 2.17 nM; in [15] it was 2.37 nM; in test [16] it was 0.06 nM.

B2: Antibody 1.52.64-1 (antibody, human IgG1, kappa)
heavy: B1 heavy with W76F
light: B1 light with V19A
With B2, the Kd in [1] came out at 49 nM; in test [2] it was 1120 nM; in [3] it was 22 nM; in test [4], 1900 nM; in test [5] it was 0.0012 nM; in test [6], 221 nM. Moreover, the Kd in test [7] was determined as 67 nM; in test [8], 63 nM; in test [9], 199 nM; in test [10], 1180 nM; in [11] it was 280 nM; in test [12] it was 55 nM. The Kd in test [13] was determined as 64 nM; in test [17], 5300 nM; in [18] it was 0.005 nM; in test [19] it was 8 nM. Moreover, the EC50 in test [14] turned out to be 3.79 nM; in [15] it was 4.02 nM; in test [16], 0.07 nM.

B3: Antibody A (antibody, human IgG1, kappa)
heavy: not shown
light: B1 light
Take B3: the Kd in test [1] was determined as 485 nM; in test [2], 42000 nM; in [3] it was 1100 nM; in test [4], 11000 nM; in test [5], 0.107 nM; in test [6] it was 1800 nM. In addition, the Kd in [7] came to 670 nM; in test [8] it was 2300 nM; in test [9], 3000 nM; in test [10], 2000 nM; in test [11] it was 895 nM; in [12], 1500 nM. For the same molecule, the Kd was found to be 2000 nM in test [13], 12800 nM in test [17], 0.038 nM in test [18] and 200 nM in [19]. Besides, the EC50 in test [14] came to 1.84 nM; in test [15], 2.21 nM; in test [16] it was 0.05 nM; in test [20], 2.2 nM.

These data come from patent US20240034774A1 (Gilead, published 2024).
